# Data taken from patent publication US20040106173A1, “Bot1: target for antifungal agents” (The University of Miami, priority 2001, published 2004).
# Legend:
# [1] = target: Tea1p fused to the DNA binding domain of GAL4 (pAS1) (Schizosaccharomyces pombe, UniProt P04386 1-147; P87061 1-1147); assay: yeast two-hybrid (HIS3 and LACZ reporters)
# Text: (§1) The tea1 gene was fused to the DNA binding domain of GAL4 in a plasmid (pAS1) carrying the trp1 marker. The orb6 gene was fused to the DNA binding domain of GAL4 (pAS1-orb6) and to the GAL4 activator domain (pACT2-orb6). The cDNA library was cloned to the transcription activator domain of GAL4 in a plasmid (pACT) carrying the leu2 marker. Plasmids pAS1, pACT2, pSE1111 (pACT-SNF4), pSE1112 (pAS1-SNF1), pAS1-p53, pAS1-lamin and the S. pombe library prepared in phage λ vectors and plasmids pAS1-SNF1 and pAS1-lamin, both harbored in Y187 strain, were kindly provided by Dr. S. Elledge. The test for cell growth on medium lacking histidine, the beta-galactosidase activation assay and the mating test to detect interaction specificity were performed as described (14). After screening 2×10⁶ transformants, we found five proteins that interact with Orb6p and four that interact with Tea1p in this system, and that were identified multiple times in the screen. Clones containing bot1+ were isolated 22 times in the Orb6p screen and eight times in the Tea1p screen. All clones contained the full-length bot1 sequence, although they usually lacked the initial ATG codon. For beta-galactosidase activation, three independent transformants were assayed for each condition.
# (§2) To identify novel components of the Orb6p pathway, a two-hybrid screen was performed to identify cDNAs encoding proteins that interact with Orb6p. One of these, isolated 22 times in this screen, was a novel protein that we named Bot1p. […] The specificity of the positive interaction between Orb6p and Bot1p in the two-hybrid system was controlled by cotransformation of pAS1-orb6 and pACT-bot1 independently with a number of control plasmids. Co-expression of SNF1p or SNF4p was used as positive controls. Orb6p was unable to support the activation of the LACZ-GAL4 and HIS3-GAL4 promoters when co-expressed with GAL4 activation domain fused to SNF4p, or with the GAL4 activation domain (GAD) alone. Bot1p was unable to support the activation of the LACZ-GAL4 and HIS3-GAL4 promoters when co-expressed with the GAL4 binding domain fused to p53, Cdc23p, GAL4 DNA binding domain (GBD) alone, or fused to SNF1p or Cdt1p.
# [2] = target: T1, Orb6p fused to the DNA binding domain of GAL4 (pAS1-orb6) (Schizosaccharomyces pombe, UniProt P04386 1-147; O13310 1-469, limits assumed); assay: LACZ-GAL4 reporter in strain BY3161, control of the three-hybrid test
# [3] = target: T1, Orb6p fused to the DNA binding domain …; assay: yeast two-hybrid (HIS3 and LACZ reporters)
# Text: as §1, §2
# [4] = target: T2, HA-tagged Bot1p (HA3-bot1, pRep41-HA3bot1)
# T2 chain: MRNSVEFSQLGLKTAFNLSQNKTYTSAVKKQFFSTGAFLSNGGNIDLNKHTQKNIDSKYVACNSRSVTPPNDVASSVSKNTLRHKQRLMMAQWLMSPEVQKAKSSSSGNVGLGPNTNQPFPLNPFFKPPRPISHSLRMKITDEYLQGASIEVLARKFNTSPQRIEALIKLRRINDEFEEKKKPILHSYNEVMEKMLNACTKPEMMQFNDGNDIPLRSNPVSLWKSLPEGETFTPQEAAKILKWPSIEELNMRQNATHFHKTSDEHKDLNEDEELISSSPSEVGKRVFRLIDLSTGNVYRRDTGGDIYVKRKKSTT
# [5] = target: T3, HA-tagged Cdc23p (pRep41-HA3cdc23) (fission yeast, UniProt O42709 1-593); assay: co-purification on glutathione resin from fission yeast extracts, co-expressed
# T3 construct: also called HA-Cdc23p; HA-Cdc23
# T3 sequence (looked up): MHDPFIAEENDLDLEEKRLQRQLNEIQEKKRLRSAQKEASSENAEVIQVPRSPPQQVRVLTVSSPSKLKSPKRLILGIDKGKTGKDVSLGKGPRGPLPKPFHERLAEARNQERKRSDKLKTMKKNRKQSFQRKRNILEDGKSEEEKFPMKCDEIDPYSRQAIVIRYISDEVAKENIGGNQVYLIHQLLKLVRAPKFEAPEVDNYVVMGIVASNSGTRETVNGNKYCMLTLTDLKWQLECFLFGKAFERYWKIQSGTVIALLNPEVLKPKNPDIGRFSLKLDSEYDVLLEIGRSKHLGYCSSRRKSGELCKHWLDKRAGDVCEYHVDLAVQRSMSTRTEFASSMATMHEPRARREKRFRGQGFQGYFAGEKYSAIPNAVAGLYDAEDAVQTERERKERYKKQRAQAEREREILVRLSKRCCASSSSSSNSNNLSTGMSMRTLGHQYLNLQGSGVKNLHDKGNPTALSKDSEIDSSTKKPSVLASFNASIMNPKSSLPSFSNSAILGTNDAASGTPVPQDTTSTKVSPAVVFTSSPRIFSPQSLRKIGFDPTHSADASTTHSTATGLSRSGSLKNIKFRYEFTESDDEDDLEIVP
# Description: (§3) Immunoblot analysis was performed using standard methodology. For co-purification experiments, ade6-704 ura4-D18 leu1-32 h-cells co-expressing HA-tagged Bot1p and GST-tagged Orb6p (FV17p), or cells co-expressing HA-tagged Bot1p and GST alone (FV16p) as a control were cultured, for 15 hr at 32° C. in the absence of thiamine. HA₃-bot1 was moderately expressed from an attenuated nmt1 promoter (10). GST-tagged fusions were constructed using the pESP plasmid (Qiagen), which also contains a nmt1 promoter. Cells were then re-suspended in HB buffer and broken using a FastPrep FP120 bead beater (Savant). Extracts were spun at 15K rpm for 15 min. GST-tagged Orb6 or GST alone was purified using glutathione beads (Molecular Probes).
# Glutathione beads were washed three times in HB buffer and then eluted. […]
# To confirm this interaction between Bot1p and Orb6p in fission yeast extracts, HA-Bot1p and GST-Orb6p were co-expressed in fission yeast cells, and GST-Orb6p was purified using glutathione-coupled resin. […] Furthermore, neither GST nor GST-Orb6p co-purified with HA-tagged Cdc23p, when co-expressed as an additional control for specificity.
# [6] = target: T4, HA-tagged Tea1p (nmt1-HA3tea1) (Schizosaccharomyces pombe, UniProt P87061 1-1147); assay: glutathione beads carrying GST-Orb6p with co-purified HA-Bot1p, incubated with an extract containing HA-Tea1p
# T4 construct: also called HA-Tea1p
# T4 sequence (looked up): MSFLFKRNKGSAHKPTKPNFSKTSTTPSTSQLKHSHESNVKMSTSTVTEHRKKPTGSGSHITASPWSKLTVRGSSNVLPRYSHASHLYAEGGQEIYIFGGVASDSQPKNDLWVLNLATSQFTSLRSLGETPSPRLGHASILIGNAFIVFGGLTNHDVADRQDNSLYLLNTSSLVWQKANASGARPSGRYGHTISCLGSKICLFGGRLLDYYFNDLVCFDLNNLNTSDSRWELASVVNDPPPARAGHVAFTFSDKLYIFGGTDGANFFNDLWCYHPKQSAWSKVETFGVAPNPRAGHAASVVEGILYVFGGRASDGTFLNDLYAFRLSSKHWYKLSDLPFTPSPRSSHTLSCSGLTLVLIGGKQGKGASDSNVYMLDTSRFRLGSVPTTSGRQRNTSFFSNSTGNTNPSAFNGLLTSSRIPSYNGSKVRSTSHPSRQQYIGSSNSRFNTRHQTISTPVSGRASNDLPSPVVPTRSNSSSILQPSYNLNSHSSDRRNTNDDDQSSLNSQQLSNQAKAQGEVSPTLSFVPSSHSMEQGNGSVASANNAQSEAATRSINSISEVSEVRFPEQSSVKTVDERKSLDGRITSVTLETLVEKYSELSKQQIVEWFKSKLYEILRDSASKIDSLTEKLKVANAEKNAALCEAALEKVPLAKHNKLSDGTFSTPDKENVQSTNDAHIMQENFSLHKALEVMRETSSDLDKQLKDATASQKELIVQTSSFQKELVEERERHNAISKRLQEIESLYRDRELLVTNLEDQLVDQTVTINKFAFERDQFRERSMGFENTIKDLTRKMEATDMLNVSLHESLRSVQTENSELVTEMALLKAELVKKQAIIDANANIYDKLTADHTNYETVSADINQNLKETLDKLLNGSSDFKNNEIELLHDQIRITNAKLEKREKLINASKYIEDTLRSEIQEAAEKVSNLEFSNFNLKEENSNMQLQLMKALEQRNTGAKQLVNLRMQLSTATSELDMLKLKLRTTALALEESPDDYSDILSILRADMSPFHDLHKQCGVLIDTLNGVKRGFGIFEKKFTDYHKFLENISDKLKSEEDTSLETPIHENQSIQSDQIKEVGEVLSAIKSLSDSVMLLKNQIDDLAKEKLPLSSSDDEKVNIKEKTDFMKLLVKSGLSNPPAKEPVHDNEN
# Description: as §3
# Glutathione beads were washed three times in HB buffer and then eluted. The eluate was run on a 10% polyacrylamide gel, blotted on nitrocellulose, and probed with a primary anti-HA antibody (Covance) or, separately, with a primary anti-GST antibody (Molecular Probes) and with a horseradish peroxidase-conjugated secondary antibody (ECL, Amersham).
# To investigate whether Bot1p is able to form a complex with Tea1p and Orb6p, we determined if these proteins co-immunoprecipitate in cell extracts, if they interact in the yeast two-hybrid system, and if they are able to associate in vitro. […]
Binder,binding result [1],binding result [2],binding result [3],GST-Orb6p autophosphorylation (in vitro protein kinase activity) [4],in vitro phosphorylation of Bot1p by Orb6p [4],binding result [5],binding result [6]
"GAL4 activation domain fused to SNF4p (pSE1111, pACT-SNF4) (other, UniProt P12904 1-322, looked up, not shown: large carriers) MKPTQDSQEKVSIEQQLAVESIRKFLNSKTSYDVLPVSYRLIVLDTSLLVKKSLNVLLQNSIVSAPLWDSKTSRFAGLLTTTDFINVIQYYFSNPDKFELVDKLQLDGLKDIERALGVDQLDTASIHPSRPLFEACLKMLESRSGRIPLIDQDEETHREIVVSVLTQYRILKFVALNCRETHFLKIPIGDLNIITQDNMKSCQMTTPVIDVIQMLTQGRVSSVPIIDENGYLINVYEAYDVLGLIKGGIYNDLSLSVGEALMRRSDDFEGVYTCTKNDKLSTIMDNIRKARVHRFFVVDDVGRLVGVLTLSDILKYILLGSN",no binding,no binding,,,,,
"GAL4 activation domain (GAD) alone (other, UniProt P04386 768-881, looked up, Two-hybrid negative control) ANFNQSGNIADSSLSFTFTNSSNGPNLITTQTNSQALSQPIASSNVHDNFMNNEITASKIDDGNNSKPLSPGWTDQTAYNAFGITTGMFNTTTMDDVYNYLFDDEDTPPNPKKE",no binding,,no binding,,,,
"GST-tagged Orb6p expressed in fission yeast (pESP-GSTOrb6+) (enzyme, Schizosaccharomyces pombe, UniProt O13310 1-469, looked up, not shown: a dimerising Fc or GST, also called GST-Orb6p) MDKNDYLHFERNPSLFPKSTLDKVQKTKKYIEHYYKVAVDHAVERNQRRINLEQRLATERGSEERKNRQLRASGEKESQFLRFRRTRLSLEDFSTIKVIGKGAFGEVRLVQKLDTGKIYAMKSLLKTEMFKRDQLAHVKAERDLLVESDSPWVVSLYYAFQDSLYLYLIMEFLPGGDLMTMLINYDTFSEDVTRFYMAECVLAIADVHRMGYIHRDIKPDNILIDRDGHIKLSDFGLSTGFYKQDQSASYMKPRTGNTVKRGQMVDAIWLTMSSKDKMATWKKNRRVMAYSTVGTPDYIAPEIFLQQGYGQDCDWWSLGAIMFECLIGWPPFCSENSHETYRKIINWRETLTFPNDIHLSIEARDLMDRLMTDSEHRLGRGGAIEIMQHPFFTGIDWDHIRETAAPFIPNLKSITDTHYFPVDELEQVPEQPVTQQPASVDPQTLEQTNLAFLGYTYKKFNYLTMKGAL",,,,The level of GST-Orb6p autophosphorylation was the same for proteins isolated from control and Bot1p-overexpressing cells,Orb6p-associated Bot1p was not phosphorylated in vitro by Orb6p,no binding,no binding
